Test results published in publication PMC6794382.

Molecular target: Drosophila melanogaster imaginal morphogenesis protein-late 2 protein (Imp-L2) (Drosophila melanogaster) (UniProt Q09024)
Test: cross-linking; Sulfo-SDA-modified ligand (about 100 μg, 10–20 nmol) incubated with recombinant Imp-L2 (76 μg, about 3 nmol) overnight at 4°C, irradiated at 365 nm for 5 min; SDS-PAGE, western blot with anti-IGF-1, tryptic digest of the excised band and LC-MS/MS (Links, StavroX)

UniProt Q09024, sequence (Q09024 26-267): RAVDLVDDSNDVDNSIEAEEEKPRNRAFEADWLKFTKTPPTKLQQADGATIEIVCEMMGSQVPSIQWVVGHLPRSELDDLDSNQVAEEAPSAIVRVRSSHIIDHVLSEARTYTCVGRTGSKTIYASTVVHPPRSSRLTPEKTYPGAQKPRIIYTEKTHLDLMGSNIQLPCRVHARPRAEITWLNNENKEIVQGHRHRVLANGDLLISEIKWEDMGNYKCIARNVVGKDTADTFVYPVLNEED

**Q.** With “des(63-70)-IGF-1 (human IGF-1 lacking the C-terminal D domain amino acids PLKPAKSA, with an additional N-terminal Gly-1) (ligand)” as the substance, how does the percent of Imp-L2 crosslinked read?
**A.** 10 to 20%
